Experimental findings from patent US20190248902A1 (published 2019) are described below.

In assay [1] the target is T1, recombinant, soluble human ASGR-1 (human, UniProt P07306 62-291).
T1 construct: biotinylated in the binning assay; also called soluble huASGR-1; Soluble ASGR-1 (Amgen)
T1 sequence: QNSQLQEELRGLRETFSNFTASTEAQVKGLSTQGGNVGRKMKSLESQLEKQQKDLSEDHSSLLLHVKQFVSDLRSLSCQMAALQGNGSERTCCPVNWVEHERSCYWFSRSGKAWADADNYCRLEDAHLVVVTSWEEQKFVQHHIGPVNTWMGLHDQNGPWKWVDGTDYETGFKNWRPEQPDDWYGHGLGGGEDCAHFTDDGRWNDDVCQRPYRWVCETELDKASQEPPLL
Briefly: Octet BLI dissociation, pH 5.6 plus calcium. The protocol: (§1) The relative dissociation of ASGR-1 from antibodies was measured using a label-free assay on an OctetHTX instrument (Fortebio). Antibody samples were captured on anti-HuFc kinetic biosensors (ForteBio cat #18-5064) at 5 ug/mL in assay buffer (10 mM Tris, 0.1% Triton, 150 mM NaCl, 1 mg/mL BSA, 1 mM CaCl2, pH7.4) for three minutes. A one minute baseline stabilization step was performed in assay buffer. Soluble ASGR-1 (Amgen) at 6 ug/ml in assay buffer was added and association to the antibodies was monitored for two minutes. Subsequent dissociation of ASGR-1 from the antibodies was performed by incubating the ASGR-1-mAb complexes for 10 minutes under each of the following conditions:
(§2) The binding signal at the end of the 2 minute association phase for each dissociation experiment was set to 100% and used to represent the maximal level of ASGR-1 binding. After 1 minute of dissociation, the percentage of ASGR-1 remaining bound was calculated. The lower the percent remaining at a given time point indicates increased levels of dissociation in response to the test conditions (ie. different pH and/or calcium concentrations). The change in the percentage of ASGR-1 remaining bound in response to each test condition relative to the percent remaining in the control conditions (ie. pH 7.4+calcium) was determined. Cut-offs for an antibody to be categorized as being sensitive to a particular condition were set to >10% (ie. if >10% of the ASGR-1 dissociates from the antibody under a particular test condition compared to control condition, it was deemed sensitive to that condition). The analysis was done using the 1 minute dissociation time point (except for mAb 149A1 which was binned based on the 4 minute dissociation time point). Using this analysis, the ASGR-1-binding, receptor-ligand blocking antibodies were separated into groups according to their dissociation profiles in response to pH and calcium (Table 7.3). Antibodies belonging to each category were observed.
Background: In BLI a coated tip is dipped into the sample, and binding shifts an interference pattern.

Assay [2] concerns the target T1, recombinant, soluble human ASGR-1. Nature of the assay: Octet BLI dissociation, pH 5.6 minus calcium. The protocol:
as §1, §2

Assay [3] has the same target. Nature of the assay: Octet BLI dissociation, pH 7.4 minus calcium. As for the experimental part: as §1, §2

B1: 5E5 (antibody, V domains shown)
VH: QVQLVESGGGVVQPGRSLRLSCAASGFTFSNYVMHWVRQAPGKGLEWVAVIWYDGSNKYYADSVKGRFTISRDNSKNTLYLQMNSLRAEDTAVYYCTREVYSSGWYDYGMDVWGQGTTVTVSS
VL: DIQMTQSPSSLSASVGDRVTITCRASQGIRNDLGWYQQKPGKAPKRLIYAASSLQSGVPSRFSGSGSGTEFTLTISSLQPEDFATYYCLQHYSYPRTFGQGTKVEVK
notes: hybridoma mAb
Consider B1, for which the “% Change Compared to pH 7.4 + Calcium” value in assay [1] was determined as 18%; in assay [2], 42%; in assay [3] it was 7%.

B2: 7G4 (antibody, V domains shown)
VH: QVQLVESGGGVVQPGRSLRLSCAASGFTFNNYVMHWVRQAPGKGLEWVAVIWYDGSNKYYADSVKGRFTISRDNSKNTLYLQMTSLRAEDTAVYYCAREKYSSNWYDYGMDVWGQGTTVTVSS
VL: DIQMTQSPSSLSASVGDRVTITCRASQGIRNDLGWYQQRPGKAPKRLIYAASSLQSGVPSRFSGSGSGTEFTLTISSLQPEDSATYYCLHQYSYPRTFGQGTKVEIK
notes: hybridoma mAb
As for B2, the “% Change Compared to pH 7.4 + Calcium” value in assay [1] is 1%; in assay [2], 7%; in assay [3], 2%.

B3: 29E2 (antibody, V domains shown)
VH: QVQLVESGGGVVQPGRSLRLSCAASGFTFSNCVMHWVRQAPGKGLEWVAVIWYDGSNKYYADSVKGRITISRDNSKNTLYLQMNSLRAEDTAVYYCAREEYSSGWYDYGMDVWGQGTTVTVSS
VL: DIQMTQSPSSLSASVGDRVTITCRASQAIRNDLGWYQQRPGKAPKRLIYAASSLQSGVPSRFSGSGSGTEFILTISSLQPEDFATYYCLQHYNYPRSFGQGTKLEIK
notes: hybridoma mAb
With B3, the “% Change Compared to pH 7.4 + Calcium” value was determined as 25% in assay [1], 38% in assay [2] and 5% in assay [3].

B4: 45B4 (antibody, V domains shown)
VH: QVQLVESGGGVVQPGRSLRLSCAASGFTFSDCVMHWVRQAPGKGLEWVAVIWYDGSNKYYADSVKGRFTISRDNSKNTLYLQMNSLRAEDTAVYYCARERYSSGLYDYGMDVWGQGTTVTVSS
VL: DIQMTQSPSSLSASVGDRVTFTCRASQGIRDDLGWYQQKPGKAPKRLIYAASSLQSGVPSRFSGSGSGTEFTLTISSLQPEDFATYYCLQHYSYPRTFGQGTKVEIK
notes: hybridoma mAb
On to B4, for which the figures for the “% Change Compared to pH 7.4 + Calcium” value in assay [1], in assay [2] and in assay [3] were 10%, 23% and 4%, respectively.

B5: 32D6 (antibody, V domains shown)
VH: QVQLVESGGGVVQPGRSLRLSCAASGFTFSSYGMHWVRQAPGKGLEWVTVIWHDGSNAYYADSVKGRFTISRDNSKNTLYLQMNSLRAEDTAVYYCARENSSSYYFDYWGQGTLVTVSS
VL: DIQMTQSPSSLSTSVGDRVTITCRASQNIISYLNWYQQKPGKAPKLLMYVASRLQSGVPSRFSGSGSGTDFTLTISSLQAEDFATYYCQQSYSTPYTFGGGTKVAIK
notes: hybridoma mAb
For the molecule B5, the “% Change Compared to pH 7.4 + Calcium” value in assay [1] was determined as 33%; in assay [2] it was 55%; in assay [3], 26%.

B6: 25A4 (antibody, V domains shown)
VH: QVLLVQSGAEVKRPGASVKVSCKASGYTFTNYDINWVRQATGQGLEWMGWMYPNSGNTGYAQKFQGRVTMTRNTSISTAYMELSSLRSEDTAVYYCASSSGWYYFDYWGQGTLVTVSS
VL: DIVMTQFPDSLAVSLGERATIKCKSSQSVLYSSHNNNYLAWYQQKPGQPPKLLLYWASTRESGVPDRFSGSGSGTEFTLTISSLEAEDVAVYYCQQYYSTPPTFGQGTKVEIK
notes: hybridoma mAb
For the molecule B6, the “% Change Compared to pH 7.4 + Calcium” value in assay [1] is -3%; in assay [2], -1%; in assay [3] it was 2%.

B7: 26C4 (antibody, V domains shown)
VH: QVQLVQSGAEVKKPGASVKVSCKASGYTFTNYDINWVRQASGQGLEWMGWMNPNSGNTGYAQRFQGRVTMTRNTSINTAYMELSSLRSEDTAVYYCASSSGWYYFDYWGQGTLVTVSS
VL: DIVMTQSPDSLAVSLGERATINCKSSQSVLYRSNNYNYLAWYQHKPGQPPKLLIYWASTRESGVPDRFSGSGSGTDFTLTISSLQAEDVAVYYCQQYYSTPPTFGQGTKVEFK
notes: hybridoma mAb
Consider B7, for which the “% Change Compared to pH 7.4 + Calcium” value in assay [1] worked out at 2%; in assay [2], 2%; in assay [3], 3%.

B8: 4A2 (antibody, V domains shown)
VH: QVQLVQSGTEVKKPGASVKVSCKASGYTFTNYDINWVRQATGQGLEWMGWMHPNSGNTGYAQKFQGRVTLTRNTSISTAYMELSSLRSEDTAVYYCASSSGWYYFDYWGQGTLVTVSS
VL: DIVMTQSPDSLAVSLGERATINCKSSQSILHSSNNNNYLAWFQQKPGQPPKLLLYWASTRESGVPDRFSGSGSGTDFTLTISSLQPEDVAVYYCQQYYNTPVTFGPGTKVGIK
notes: hybridoma mAb
Turning to B8, the “% Change Compared to pH 7.4 + Calcium” value in assay [1] is -3%; in assay [2], 1%; in assay [3], 1%.

B9: 29H8 (antibody, V domains shown)
VH: QVQLVQSGAEVQKPGASVKVSCKASGYTFTNYDINWVRQATGQGLEWMGWMNPNSGNTGYAQRFQGRVTMTRNTSISAAYMELSSLRSEDTAVYYCASSSGWYYFDYWGQGTLVTVSS
VL: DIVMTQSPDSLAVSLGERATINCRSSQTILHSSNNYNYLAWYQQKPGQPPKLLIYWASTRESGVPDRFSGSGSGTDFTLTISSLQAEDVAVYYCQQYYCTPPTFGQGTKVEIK
notes: hybridoma mAb
As for B9, the “% Change Compared to pH 7.4 + Calcium” value in assay [1] is -2%; in assay [2], 2%; in assay [3], 2%.

B10: 50G9 (antibody, V domains shown)
VH: QVQLVESGGGVVQPGRSLRLSCAASGFIFSSYGMHWVRQAPGKGLEWVAVISQDGIIRYYADSVKGRFTISRDNSKNTLYLQMNSLRAEDTAVYYCARDVKQWLVRTYGMDVWGQGTTVTVSS
VL: SYELTQPPSVSVSPGQTASITCSGDKLGDKYACWYQQKPGQSPVLVIYQDSKRPSGIPERFSGSNSGNTATLTISGTQARDEAEYYCQARNSRRGVFGGGTRLTVL
notes: hybridoma mAb
For B10, the “% Change Compared to pH 7.4 + Calcium” value came out at 62% in assay [1], 44% in assay [2] and 37% in assay [3].

B11: 65E9 (antibody, V domains shown)
VH: not shown
VL: SYELTQPPSVSVSPGQTASITCSGDKLGNKYDYWYQQKPGQSPVLVIYQDRKRPSGIPERFSGSNSGNTATLTISGTQAMDEADYYCQAWDNSTVVFGGGTKLTVL
notes: hybridoma mAb
As for B11, the “% Change Compared to pH 7.4 + Calcium” value in assay [1] was found to be 30%; in assay [2], 35%; in assay [3], 22%.

B12: 52H1 (antibody, V domains shown)
VH: QVQLVESGGGVVQPGRSLRLSCAASGFTFSGYGMHWVRQAPGKGLEWVAVIWYDGSNKYYADSVKGRFTISRDNSKNTLYLQMNSLRAEDTAVYYCARDRVYCSSSSCSYYYYYYGMDVWGQGTTVTVSS
VL: SYELTQPPSVFVSPGQTASITSSGDKLGDKYVSWYQQKPGQSPVLVIYQDRKRPSGIPERFSGSNSGNTATLTISGTQAMDEADYYCQAWDNSTVVFGGGTKLTVL
notes: hybridoma mAb
As to B12, the “% Change Compared to pH 7.4 + Calcium” value in assay [1] was -1%; in assay [2] it was 10%; in assay [3], 5%.

B13: 72B4 (antibody, V domains shown)
VH: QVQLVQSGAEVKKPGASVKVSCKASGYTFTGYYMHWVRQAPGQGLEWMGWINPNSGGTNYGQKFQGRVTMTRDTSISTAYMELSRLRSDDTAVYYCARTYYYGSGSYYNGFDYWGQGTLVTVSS
VL: SYELTQPPSVSVSPGQTASITCSGDKLGDKYAWWYQQRPGQSPVLVIYEDRKRPSGIPERFSGSNSGNTATLTISGTQAMDEADYYCQAWDNSTVVFGGGTKLTVL
notes: hybridoma mAb
Regarding B13, the “% Change Compared to pH 7.4 + Calcium” value in assay [1] was 26%; in assay [2], 43%; in assay [3] it was 32%.

B14: 4B3 (antibody, V domains shown)
VH: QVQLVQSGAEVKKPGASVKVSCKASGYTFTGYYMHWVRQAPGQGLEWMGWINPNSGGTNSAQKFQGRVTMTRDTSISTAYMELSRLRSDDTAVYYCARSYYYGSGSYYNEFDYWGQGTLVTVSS
VL: SYELTQPPSVSVSPRQTVSITCSGDKLGDKYACWYQQKPGQSPVLVIYQDRKRPSGIPERFSGSNSGNTATLTISGTQAMDEADYYCQAWDNNTVIFGGGTKLTVL
notes: hybridoma mAb
With B14, the “% Change Compared to pH 7.4 + Calcium” value in assay [1] was found to be 33%; in assay [2], 45%; in assay [3], 12%.
